Biological target: SUMO-tagged CGAS (human) (UniProt Q8N884)
Test: SPR

Sequence of UniProt Q8N884 (Q8N884 whole entry): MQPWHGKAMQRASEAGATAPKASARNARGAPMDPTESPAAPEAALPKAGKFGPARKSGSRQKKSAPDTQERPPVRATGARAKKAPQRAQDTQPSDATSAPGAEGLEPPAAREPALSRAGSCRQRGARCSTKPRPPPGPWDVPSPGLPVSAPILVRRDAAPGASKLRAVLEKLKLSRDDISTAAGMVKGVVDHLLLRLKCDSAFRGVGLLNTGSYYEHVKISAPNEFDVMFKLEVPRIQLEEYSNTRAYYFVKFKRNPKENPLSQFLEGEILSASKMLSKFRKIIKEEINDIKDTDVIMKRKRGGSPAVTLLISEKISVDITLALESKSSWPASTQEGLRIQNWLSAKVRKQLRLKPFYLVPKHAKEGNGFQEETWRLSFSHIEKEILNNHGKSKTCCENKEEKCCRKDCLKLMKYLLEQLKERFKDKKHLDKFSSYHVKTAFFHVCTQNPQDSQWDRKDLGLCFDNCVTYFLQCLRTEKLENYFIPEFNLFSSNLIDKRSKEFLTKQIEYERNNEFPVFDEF

Kd: 170 nM
Substance: His-tagged LC3B (from UniProt Q9GZQ8 1-120) (natural protein; other documents disagree on this pair)
